Publication PMC11306251, “An integrative structural study of the human full-length RAD52 at 2.2 Å resolution” (Communications Biology, 2024)

T1: FL-RAD52 (Homo sapiens, UniProt P43351 1-418)
T1 sequence: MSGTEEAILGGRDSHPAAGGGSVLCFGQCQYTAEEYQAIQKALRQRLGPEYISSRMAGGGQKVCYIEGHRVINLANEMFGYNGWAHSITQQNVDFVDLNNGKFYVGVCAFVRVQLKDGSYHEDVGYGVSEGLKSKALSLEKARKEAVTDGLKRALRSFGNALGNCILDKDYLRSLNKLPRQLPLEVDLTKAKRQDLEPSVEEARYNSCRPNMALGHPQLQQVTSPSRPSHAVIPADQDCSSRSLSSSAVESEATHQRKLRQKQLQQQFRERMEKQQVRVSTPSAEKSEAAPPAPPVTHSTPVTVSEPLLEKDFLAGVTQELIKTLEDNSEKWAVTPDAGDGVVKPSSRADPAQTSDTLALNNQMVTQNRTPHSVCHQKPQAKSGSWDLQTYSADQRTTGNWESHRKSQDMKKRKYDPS


How the values were obtained:
[1] = target: the molecule itself; test: MST; apparent; RED-NHS labelled FL-RAD52 constant at 10 nM, unlabelled FL-RAD52 0.7 nM-25 μM; 25 °C; 25 mM Hepes pH 7.5, 5% glycerol, 250 mM NaCl, 0.05% Tween 20; step of self-association not stated
FL-RAD52 = target: T1, FL-RAD52; test: fluorescence polarization; apparent Kd; 10 nM DNA; FP: 25 mM Tris-HCl pH 7.5, 62.5 mM NaCl, 5% glycerol, 1 mM DTT, room temperature, 15 min; settings: protein: recombinant; tags: His-tag (pET15b); label: 5'-6-FAM; single strand

Row | Binder | Kd [1] | Kd (FL-RAD52)
1 | Human full-length RAD52 (FL-RAD52), 6xHis-tagged (natural protein, UniProt P43351 1-418, looked up, Human RAD52, full length, 418 amino acids (47 kDa); expression vector pET15b (Addgene, number not given); In the MST experiment the copy held at constant concentration was labelled with RED-NHS (amine dye NT-647-NHS); No tag cleavage is described; the SAXS deposit is named 'His-Tagged full-length'; also called DNA repair protein RAD52 homolog; source: E. coli BL21 (DE3) Rosetta pLysS, purified …) MSGTEEAILGGRDSHPAAGGGSVLCFGQCQYTAEEYQAIQKALRQRLGPEYISSRMAGGGQKVCYIEGHRVINLANEMFGYNGWAHSITQQNVDFVDLNNGKFYVGVCAFVRVQLKDGSYHEDVGYGVSEGLKSKALSLEKARKEAVTDGLKRALRSFGNALGNCILDKDYLRSLNKLPRQLPLEVDLTKAKRQDLEPSVEEARYNSCRPNMALGHPQLQQVTSPSRPSHAVIPADQDCSSRSLSSSAVESEATHQRKLRQKQLQQQFRERMEKQQVRVSTPSAEKSEAAPPAPPVTHSTPVTVSEPLLEKDFLAGVTQELIKTLEDNSEKWAVTPDAGDGVVKPSSRADPAQTSDTLALNNQMVTQNRTPHSVCHQKPQAKSGSWDLQTYSADQRTTGNWESHRKSQDMKKRKYDPS | 13 µM | 
2 | TTTTTTTTTTTTTTTTTTTTTTTTTTTTTT (ssDNA) [dT30 ssDNA] |  | 0.0372 ± 0.0004 µM
